Starred links: 1 amine or outer side, 2 acyl side, 3 side chain; linkers in the order of their positions; H or OH if unused. Non-standard residues stand in square brackets, D forms with d. Groups on a side chain read outwards from the residue. *: point of attachment. C18 diacid = O=C(O)CCCCCCCCCCCCCCCCC(=O)*; γGlu = O=C(O)[C@H](CCC(=O)[*:2])N[*:1]; AEEA = NCCOCCOCC(=O)O; Aib = CC(C)(N)C(=O)O
T1: full-length human GIPR with an N-terminal FLAG tag, overexpressed on HEK-293T cells (human, UniProt P48546 22-466)
T1 sequence (looked up): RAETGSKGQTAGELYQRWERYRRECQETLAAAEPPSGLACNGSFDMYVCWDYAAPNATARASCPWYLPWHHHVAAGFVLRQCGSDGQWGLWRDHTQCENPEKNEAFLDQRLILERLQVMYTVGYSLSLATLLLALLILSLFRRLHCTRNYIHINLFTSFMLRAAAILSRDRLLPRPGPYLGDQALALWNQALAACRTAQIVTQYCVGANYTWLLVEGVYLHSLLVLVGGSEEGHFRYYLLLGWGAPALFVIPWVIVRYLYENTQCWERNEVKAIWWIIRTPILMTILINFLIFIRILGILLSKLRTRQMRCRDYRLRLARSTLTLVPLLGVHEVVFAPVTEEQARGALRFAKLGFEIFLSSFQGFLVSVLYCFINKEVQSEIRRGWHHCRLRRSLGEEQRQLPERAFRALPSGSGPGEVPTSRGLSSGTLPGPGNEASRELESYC

B1: Compound No. 167 (peptide)
peptide: H-Y[Aib]EGTFISDYSI[Aib]LDKAAQQK([AEEA-AEEA-γGlu-γGlu-C18 diacid])FVEWLLAQRG-OH
SMILES: CC[C@H](C)[C@H](NC(=O)[C@H](Cc1ccccc1)NC(=O)[C@@H](NC(=O)CNC(=O)[C@H](CCC(=O)O)NC(=O)C(C)(C)NC(=O)[C@@H](N)Cc1ccc(O)cc1)[C@@H](C)O)C(=O)N[C@@H](CO)C(=O)N[C@@H](CC(=O)O)C(=O)N[C@@H](Cc1ccc(O)cc1)C(=O)N[C@@H](CO)C(=O)N[C@H](C(=O)NC(C)(C)C(=O)N[C@@H](CC(C)C)C(=O)N[C@@H](CC(=O)O)C(=O)N[C@@H](CCCCN)C(=O)N[C@@H](C)C(=O)N[C@@H](C)C(=O)N[C@@H](CCC(N)=O)C(=O)N[C@@H](CCC(N)=O)C(=O)N[C@@H](CCCCNC(=O)COCCOCCNC(=O)COCCOCCNC(=O)CC[C@H](NC(=O)CC[C@H](NC(=O)CCCCCCCCCCCCCCCCC(=O)O)C(=O)O)C(=O)O)C(=O)N[C@@H](Cc1ccccc1)C(=O)N[C@H](C(=O)N[C@@H](CCC(=O)O)C(=O)N[C@@H](Cc1c[nH]c2ccccc12)C(=O)N[C@@H](CC(C)C)C(=O)N[C@@H](CC(C)C)C(=O)N[C@@H](C)C(=O)N[C@@H](CCC(N)=O)C(=O)N[C@@H](CCCNC(=N)N)C(=O)NCC(=O)O)C(C)C)[C@@H](C)CC
B2: Compound No. 170 (peptide)
peptide: H-Y[Aib]EGTFISDYSI[Aib]LDKAK([AEEA-AEEA-γGlu-C18 diacid])QQDFVNWLLAQRG-OH
SMILES: CC[C@H](C)[C@H](NC(=O)[C@H](Cc1ccccc1)NC(=O)[C@@H](NC(=O)CNC(=O)[C@H](CCC(=O)O)NC(=O)C(C)(C)NC(=O)[C@@H](N)Cc1ccc(O)cc1)[C@@H](C)O)C(=O)N[C@@H](CO)C(=O)N[C@@H](CC(=O)O)C(=O)N[C@@H](Cc1ccc(O)cc1)C(=O)N[C@@H](CO)C(=O)N[C@H](C(=O)NC(C)(C)C(=O)N[C@@H](CC(C)C)C(=O)N[C@@H](CC(=O)O)C(=O)N[C@@H](CCCCN)C(=O)N[C@@H](C)C(=O)N[C@@H](CCCCNC(=O)COCCOCCNC(=O)COCCOCCNC(=O)CC[C@H](NC(=O)CCCCCCCCCCCCCCCCC(=O)O)C(=O)O)C(=O)N[C@@H](CCC(N)=O)C(=O)N[C@@H](CCC(N)=O)C(=O)N[C@@H](CC(=O)O)C(=O)N[C@@H](Cc1ccccc1)C(=O)N[C@H](C(=O)N[C@@H](CC(N)=O)C(=O)N[C@@H](Cc1c[nH]c2ccccc12)C(=O)N[C@@H](CC(C)C)C(=O)N[C@@H](CC(C)C)C(=O)N[C@@H](C)C(=O)N[C@@H](CCC(N)=O)C(=O)N[C@@H](CCCNC(=N)N)C(=O)NCC(=O)O)C(C)C)[C@@H](C)CC
B3: Compound No. 163 (peptide)
peptide: H-Y[Aib]EGTFISDYSIALDK[Aib]K([AEEA-AEEA-γGlu-C18 diacid])QANFVEWLLAQRG-OH
SMILES: CC[C@H](C)[C@H](NC(=O)[C@H](CO)NC(=O)[C@H](Cc1ccc(O)cc1)NC(=O)[C@H](CC(=O)O)NC(=O)[C@H](CO)NC(=O)[C@@H](NC(=O)[C@H](Cc1ccccc1)NC(=O)[C@@H](NC(=O)CNC(=O)[C@H](CCC(=O)O)NC(=O)C(C)(C)NC(=O)[C@@H](N)Cc1ccc(O)cc1)[C@@H](C)O)[C@@H](C)CC)C(=O)N[C@@H](C)C(=O)N[C@@H](CC(C)C)C(=O)N[C@@H](CC(=O)O)C(=O)N[C@@H](CCCCN)C(=O)NC(C)(C)C(=O)N[C@@H](CCCCNC(=O)COCCOCCNC(=O)COCCOCCNC(=O)CC[C@H](NC(=O)CCCCCCCCCCCCCCCCC(=O)O)C(=O)O)C(=O)N[C@@H](CCC(N)=O)C(=O)N[C@@H](C)C(=O)N[C@@H](CC(N)=O)C(=O)N[C@@H](Cc1ccccc1)C(=O)N[C@H](C(=O)N[C@@H](CCC(=O)O)C(=O)N[C@@H](Cc1c[nH]c2ccccc12)C(=O)N[C@@H](CC(C)C)C(=O)N[C@@H](CC(C)C)C(=O)N[C@@H](C)C(=O)N[C@@H](CCC(N)=O)C(=O)N[C@@H](CCCNC(=N)N)C(=O)NCC(=O)O)C(C)C
B4: Compound No. 171 (peptide)
peptide: H-Y[Aib]EGTFISDYSI[Aib]LDKAK([AEEA-AEEA-γGlu-C18 diacid])QADFVNWLLAQRG-OH
SMILES: CC[C@H](C)[C@H](NC(=O)[C@H](Cc1ccccc1)NC(=O)[C@@H](NC(=O)CNC(=O)[C@H](CCC(=O)O)NC(=O)C(C)(C)NC(=O)[C@@H](N)Cc1ccc(O)cc1)[C@@H](C)O)C(=O)N[C@@H](CO)C(=O)N[C@@H](CC(=O)O)C(=O)N[C@@H](Cc1ccc(O)cc1)C(=O)N[C@@H](CO)C(=O)N[C@H](C(=O)NC(C)(C)C(=O)N[C@@H](CC(C)C)C(=O)N[C@@H](CC(=O)O)C(=O)N[C@@H](CCCCN)C(=O)N[C@@H](C)C(=O)N[C@@H](CCCCNC(=O)COCCOCCNC(=O)COCCOCCNC(=O)CC[C@H](NC(=O)CCCCCCCCCCCCCCCCC(=O)O)C(=O)O)C(=O)N[C@@H](CCC(N)=O)C(=O)N[C@@H](C)C(=O)N[C@@H](CC(=O)O)C(=O)N[C@@H](Cc1ccccc1)C(=O)N[C@H](C(=O)N[C@@H](CC(N)=O)C(=O)N[C@@H](Cc1c[nH]c2ccccc12)C(=O)N[C@@H](CC(C)C)C(=O)N[C@@H](CC(C)C)C(=O)N[C@@H](C)C(=O)N[C@@H](CCC(N)=O)C(=O)N[C@@H](CCCNC(=N)N)C(=O)NCC(=O)O)C(C)C)[C@@H](C)CC
B5: Compound No. 169 (peptide)
peptide: H-Y[Aib]EGTFISDYSI[Aib]LDKAK([AEEA-AEEA-γGlu-C18 diacid])QQDFVEWLLAQRG-OH
SMILES: CC[C@H](C)[C@H](NC(=O)[C@H](Cc1ccccc1)NC(=O)[C@@H](NC(=O)CNC(=O)[C@H](CCC(=O)O)NC(=O)C(C)(C)NC(=O)[C@@H](N)Cc1ccc(O)cc1)[C@@H](C)O)C(=O)N[C@@H](CO)C(=O)N[C@@H](CC(=O)O)C(=O)N[C@@H](Cc1ccc(O)cc1)C(=O)N[C@@H](CO)C(=O)N[C@H](C(=O)NC(C)(C)C(=O)N[C@@H](CC(C)C)C(=O)N[C@@H](CC(=O)O)C(=O)N[C@@H](CCCCN)C(=O)N[C@@H](C)C(=O)N[C@@H](CCCCNC(=O)COCCOCCNC(=O)COCCOCCNC(=O)CC[C@H](NC(=O)CCCCCCCCCCCCCCCCC(=O)O)C(=O)O)C(=O)N[C@@H](CCC(N)=O)C(=O)N[C@@H](CCC(N)=O)C(=O)N[C@@H](CC(=O)O)C(=O)N[C@@H](Cc1ccccc1)C(=O)N[C@H](C(=O)N[C@@H](CCC(=O)O)C(=O)N[C@@H](Cc1c[nH]c2ccccc12)C(=O)N[C@@H](CC(C)C)C(=O)N[C@@H](CC(C)C)C(=O)N[C@@H](C)C(=O)N[C@@H](CCC(N)=O)C(=O)N[C@@H](CCCNC(=N)N)C(=O)NCC(=O)O)C(C)C)[C@@H](C)CC
B6: Compound No. 168 (peptide)
peptide: H-Y[Aib]EGTFISDYSI[Aib]LDKAAQAK([AEEA-AEEA-γGlu-γGlu-C18 diacid])FVEWLLAQRG-OH
SMILES: CC[C@H](C)[C@H](NC(=O)[C@H](Cc1ccccc1)NC(=O)[C@@H](NC(=O)CNC(=O)[C@H](CCC(=O)O)NC(=O)C(C)(C)NC(=O)[C@@H](N)Cc1ccc(O)cc1)[C@@H](C)O)C(=O)N[C@@H](CO)C(=O)N[C@@H](CC(=O)O)C(=O)N[C@@H](Cc1ccc(O)cc1)C(=O)N[C@@H](CO)C(=O)N[C@H](C(=O)NC(C)(C)C(=O)N[C@@H](CC(C)C)C(=O)N[C@@H](CC(=O)O)C(=O)N[C@@H](CCCCN)C(=O)N[C@@H](C)C(=O)N[C@@H](C)C(=O)N[C@@H](CCC(N)=O)C(=O)N[C@@H](C)C(=O)N[C@@H](CCCCNC(=O)COCCOCCNC(=O)COCCOCCNC(=O)CC[C@H](NC(=O)CC[C@H](NC(=O)CCCCCCCCCCCCCCCCC(=O)O)C(=O)O)C(=O)O)C(=O)N[C@@H](Cc1ccccc1)C(=O)N[C@H](C(=O)N[C@@H](CCC(=O)O)C(=O)N[C@@H](Cc1c[nH]c2ccccc12)C(=O)N[C@@H](CC(C)C)C(=O)N[C@@H](CC(C)C)C(=O)N[C@@H](C)C(=O)N[C@@H](CCC(N)=O)C(=O)N[C@@H](CCCNC(=N)N)C(=O)NCC(=O)O)C(C)C)[C@@H](C)CC

What follows are binders tested against T1, full-length human GIPR with an … (assay: cell-based or functional assay).

Row | Binder | Human GIPR cAMP EC50, HEK293T [nM]
1 | B1 | 0.0009
2 | Me-Y[Aib]EGTFISDYSIALDKIAQ[Aib]K([AEEA-AEEA-γGlu-γGlu-C18 diacid])FVNWLLAQRG-OH [Compound No. 175] | 0.0007
3 | B2 | 0.0005
4 | B3 | 0.0002
5 | Me-Y[Aib]EGTFISDYSIALDKIAQ[Aib]K([AEEA-AEEA-γGlu-γGlu-C18 diacid])FVEWLLAQRG-OH [Compound No. 173] | 0.0003
6 | Me-Y[Aib]EGTFISDYSIALDKAAQ[Aib]K([AEEA-AEEA-γGlu-γGlu-C18 diacid])FVEWLLAQRG-OH [Compound No. 174] | 0.0004
7 | B4 | 0.0006
8 | B5 | 0.0008
9 | B6 | 0.0009
10 | YXEGTFISDYSIAXDKAXQQDFVEWLLAQRG (N-terminus H; Aib at 2, 14; Km at 18 = Lys(2OEGgE-C18DA); C-terminus OH) [Compound No. 164] | 0.0002
11 | YXEGTFISDYSIAXDKIXQADFVEWLLAQRG (N-terminus H; Aib at 2, 14; Km at 18 = Lys(2OEGgE-C18DA); C-terminus OH) [Compound No. 166] | 0.0005
12 | YXEGTFISDYSIAXDKAXQADFVEWLLAQRG (N-terminus H; Aib at 2, 14; Km at 18 = Lys(2OEGgE-C18DA); C-terminus OH) [Compound No. 165] | 0.0001

The binders below were run against full-length human GLP-1R with an N-terminal FLAG tag, overexpressed on HEK-293T cells (human, UniProt P43220 24-463) (assay: cell-based or functional assay).

Row | Binder | Human GLP1R cAMP EC50, HEK293T [nM]
13 | B1 | 38
14 | Me-Y[Aib]EGTFISDYSIALDKIAQ[Aib]K([AEEA-AEEA-γGlu-γGlu-C18 diacid])FVNWLLAQRG-OH [Compound No. 175] | 58.9
15 | B2 | 61.7
16 | B3 | 219
17 | Me-Y[Aib]EGTFISDYSIALDKIAQ[Aib]K([AEEA-AEEA-γGlu-γGlu-C18 diacid])FVEWLLAQRG-OH [Compound No. 173] | 105
18 | Me-Y[Aib]EGTFISDYSIALDKAAQ[Aib]K([AEEA-AEEA-γGlu-γGlu-C18 diacid])FVEWLLAQRG-OH [Compound No. 174] | 47.9
19 | B4 | 83.2
20 | B5 | 178
21 | B6 | 16.6
22 | YXEGTFISDYSIAXDKAXQQDFVEWLLAQRG (N-terminus H; Aib at 2, 14; Km at 18 = Lys(2OEGgE-C18DA); C-terminus OH) [Compound No. 164] | > 1000
23 | YXEGTFISDYSIAXDKIXQADFVEWLLAQRG (N-terminus H; Aib at 2, 14; Km at 18 = Lys(2OEGgE-C18DA); C-terminus OH) [Compound No. 166] | 74.1
24 | YXEGTFISDYSIAXDKAXQADFVEWLLAQRG (N-terminus H; Aib at 2, 14; Km at 18 = Lys(2OEGgE-C18DA); C-terminus OH) [Compound No. 165] | > 1000

Reference: patent US20230143604A1, “QW DOSING OF GIP RECEPTOR AGONIST PEPTIDE COMPOUNDS AND USES THEREOF” (TAKEDA PHARMACEUTICAL COMPANY LIMITED, priority 2020, published 2023)
